Source: paper PMC3827151, “Methionine Mutations of Outer Membrane Protein X Influence Structural Stability and Beta-Barrel Unfolding” (PLoS ONE, 2013)

Molecular target: the molecule itself
Test: SDS-PAGE of unboiled samples (gel mobility shift); protein in 8 M urea diluted 20-fold into LDAO, DPC, 60PC or DMPC in 20 mM Tris-HCl pH 9.5, slow folding at 40°C for 3 h; samples not centrifuged; bands of folded and unfolded monomer and dimer

B1: Outer membrane protein X H100N (OmpX^HN) (natural protein, E. coli, UniProt P0A917 24-171, looked up)
chain: ATSTVTGGYAQSDAQGQMNKMGGFNLKYRYEEDNSPLGVIGSFTYTEKSRTASSGDYNKNQYYGITAGPAYRINDWASIYGVVGVGYGKFQTTEYPTYKNDTSDYGFSYGAGLQFNPMENVALDFSYEQSRIRSVDVGTWIAGVGYRF
notes: also called OmpX H100N
B1: binds.

B2: Outer membrane protein X H100N:M18L:M21L:M118L quadruple mutant (OmpX^M) (natural protein, E. coli, UniProt P0A917 24-171, looked up)
chain: ATSTVTGGYAQSDAQGQLNKLGGFNLKYRYEEDNSPLGVIGSFTYTEKSRTASSGDYNKNQYYGITAGPAYRINDWASIYGVVGVGYGKFQTTEYPTYKNDTSDYGFSYGAGLQFNPLENVALDFSYEQSRIRSVDVGTWIAGVGYRF
notes: the 'initiator' Met is kept; PDB 1QJ8 is the parent OmpX^HN; also called Met-less construct
B2: binds.
